Residue numbers refer to the chain shown, from its start.
T1: Fetuin (bovine serum glycoprotein), biotinylated (bovine, UniProt P12763 19-359)
T1 construct: source: bought: Sigma-Aldrich
T1 sequence: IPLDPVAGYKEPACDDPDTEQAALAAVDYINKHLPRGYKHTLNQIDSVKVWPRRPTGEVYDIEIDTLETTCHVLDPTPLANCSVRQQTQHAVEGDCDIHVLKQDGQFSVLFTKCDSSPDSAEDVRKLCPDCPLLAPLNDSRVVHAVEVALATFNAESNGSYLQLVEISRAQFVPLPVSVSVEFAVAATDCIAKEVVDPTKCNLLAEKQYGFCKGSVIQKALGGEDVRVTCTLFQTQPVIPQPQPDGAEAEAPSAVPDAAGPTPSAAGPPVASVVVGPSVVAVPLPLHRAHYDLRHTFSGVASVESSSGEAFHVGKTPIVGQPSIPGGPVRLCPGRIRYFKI

T2: Asialofetuin (fetuin lacking sialic acid), biotinylated (bovine, UniProt P12763 19-359)
T2 construct: source: bought: Sigma-Aldrich
T2 sequence: T1 sequence

B1: S2(PtxB1)S4his recombinant dimer of pertussis toxin subunits S2 (PtxB1 form) and S4 (complex)
chain 1: STPGIVIPPQEQITQHGGPYGRCANKTRALTVAELRGSGDLQEYLRHVTRGWSIFALYDGTYLGGEYGGVIKDGTPGGAFDLKTTFCIMTTRNTGQPATDHYYSNVTATRLLSSTNSRLCAVFVRSGQPVIGACTSPYDGKYWSMYSRLRKMLYLIYVAGISVRVHVSKEEQYYDYEDATFETYALTGISICNPGSSLC
chain 2: DVPYVLVKTNMVVTSVAMKPYEVTPTRMLVCGIAAKLGAAASSPDAHVPFCFGKDLKRPGSSPMEVMLRAVFMQQRPLRMFLGPKQLTFEGKPALELIRMVECSGKQDCP
B2: S3S4his recombinant dimer of pertussis toxin subunits S3 and S4 (complex)
chain 1: VAPGIVIPPKALFTQQGGAYGRCPNGTRALTVAELRGNAELQTYLRQITPGWSIYGLYDGTYLGQAYGGIIKDAPPGAGFIYRETFCITTIYKTGQPAADHYYSKVTATRLLASTNSRLCAVFVRDGQSVIGACASPYEGRYRDMYDALRRLLYMIYMSGLAVRVHVSKEEQYYDYEDATFQTYALTGISLCNPAASIC
chain 2: B1 chain 2
B3: S2(PtxB2)S4his recombinant dimer of pertussis toxin subunits S2 (PtxB2 form) and S4 (complex)
chain 1: B1 chain 1 with G18S
chain 2: B1 chain 2

Each binder was assayed against T1, Fetuin (bovine serum glycoprotein), … (assay: BLI). Conditions: both partners purified.

Binder | binding result
B1 | binds
B2 | binds
B3 | binds

These binders were tested against T2, Asialofetuin (fetuin lacking sialic …) (assay: BLI). Conditions: both partners purified.

Binder | binding result
B1 | binds
B2 | binds
B3 | binds

Reference: article PMC4573519 (PLoS ONE, 2015)
